Three compounds from paper PMC9992711, “Two-step structural changes in M3 muscarinic receptor activation rely on the coupled Gq protein cycle” (Nature Communications, 2023) can be followed below.

For experiment [1], the target named is T1, human M3 muscarinic receptor (hM3R) (Homo sapiens, UniProt P20309, DEL271-484).
T1 construct: gene CHRM3; hM3R-YFP-CFP (EYFP replaces segment between Ala270 and Lys485 in ICL3; Cerulean at C-terminus)
Put plainly: intramolecular receptor FRET in HEK293T cells, concentration-response. The experiment is classed as cell-based.

The target in experiment [2] is T2, mouse M1 muscarinic receptor (mM1R) (Mus musculus, UniProt P12657).
T2 construct: gene Chrm1; mM1R-YFP-CFP; wild-type mM1R
T2 sequence (P12657 1-460): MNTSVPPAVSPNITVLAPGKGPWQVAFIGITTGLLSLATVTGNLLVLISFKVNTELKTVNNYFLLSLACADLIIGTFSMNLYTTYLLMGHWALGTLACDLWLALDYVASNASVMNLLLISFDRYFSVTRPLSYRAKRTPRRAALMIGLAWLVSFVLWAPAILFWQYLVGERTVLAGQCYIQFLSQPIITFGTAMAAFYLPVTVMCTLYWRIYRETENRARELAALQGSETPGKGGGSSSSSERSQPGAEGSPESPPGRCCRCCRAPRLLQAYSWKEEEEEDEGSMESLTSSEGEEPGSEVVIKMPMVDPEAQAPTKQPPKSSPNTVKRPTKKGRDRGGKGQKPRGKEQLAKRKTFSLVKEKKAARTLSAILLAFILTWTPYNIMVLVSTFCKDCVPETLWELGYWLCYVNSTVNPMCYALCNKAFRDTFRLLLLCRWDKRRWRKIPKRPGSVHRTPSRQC
Put plainly: receptor FRET and RFP-PH translocation in HEK293T cells. It is filed as cell-based.

Experiment [3] deals with hM3R-Cerulean (human) (UniProt P20309). As to the kind of experiment: FRET or BRET; CFP/YFP photometry on single live HEK293T (tsA-201) cells; labelled pair co-transfected with the remaining cognate G protein subunits (GRK2 too for Gαq-CFP with Gβ1-YFP); whole-cell patch, pipette with 0.1 mM GTP; 10 μM Oxo-M applied; room temperature. In general terms: BRET reads energy transfer from a luciferase to a nearby fluorophore.

The target is the same in experiment [4]. As to the kind of experiment: FRET or BRET; CFP/YFP photometry on single live HEK293T (tsA-201) cells; labelled pair with the remaining cognate G protein subunits co-transfected (GRK2 too for Gαq-CFP with Gβ1-YFP; only the two probes for hM3R-CFP with YFP-PLCβ1); 10 μM Oxo-M applied and washed out.
Experiment [5] has as its target hM3R-EYFP-Cerulean (human) (UniProt P20309).

Chain of heterotrimeric Gq protein (P50148 whole entry, looked up, one chain of several): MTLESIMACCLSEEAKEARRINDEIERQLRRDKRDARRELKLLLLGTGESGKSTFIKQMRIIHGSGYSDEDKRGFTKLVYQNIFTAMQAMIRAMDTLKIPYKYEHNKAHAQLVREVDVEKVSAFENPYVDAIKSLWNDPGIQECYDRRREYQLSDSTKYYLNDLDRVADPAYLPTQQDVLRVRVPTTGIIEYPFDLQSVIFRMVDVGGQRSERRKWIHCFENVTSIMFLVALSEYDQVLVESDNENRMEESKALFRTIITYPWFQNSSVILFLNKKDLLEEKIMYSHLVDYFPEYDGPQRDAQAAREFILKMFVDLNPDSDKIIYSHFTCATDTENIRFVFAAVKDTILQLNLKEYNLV

Regarding `C[N+](C)(C)CC#CCN1CCCC1=O` [Oxo-M, oxotremorine-M], it took 112 nM to reach a half-maximal effect in experiment [1] (EC50). Besides, the “receptor FRET and RFP-PH translocation in HEK293T cells” value in experiment [2] was “wild-type mM1R or hM3R plasmid showed a strong translocation of RFP-PH from the plasma membrane to cytosol by Oxo-M”.

In the experiment with hM3R-Cerulean (human) [3], “Gβγ subunits (bovine Gβ1-EYFP with Gγ2) (from UniProt P62871 1-340; P59768 1-71) (complex; other documents disagree on this pair)” returned a time constant τ of the FRETr increase on Oxo-M of 0.23 s. Also, in the experiment with hM3R-Cerulean (human) [4], the deactivation time constant τ of FRETr after Oxo-M washout was 0.53 s.

Compound “heterotrimeric Gq protein (from UniProt P50148 1-359) (complex)” had an intramolecular FRETr of hM3R-YFP-CFP, time constant τ of step 1 on Oxo-M, intact HEK293T cells in experiment [5] of 0.22 s.

As usually defined, the EC50 is the midpoint of the concentration-response curve. Higher therefore signals weaker potency.
